Data: paper PMC12667553 (2025)

Molecular target: His6-tagged YAP, purified (immobilised in BLI) (UniProt P46937 1-504)
Experiment: BLI

His6-tagged YAP, purified (immobilised in BLI), sequence (P46937 whole entry): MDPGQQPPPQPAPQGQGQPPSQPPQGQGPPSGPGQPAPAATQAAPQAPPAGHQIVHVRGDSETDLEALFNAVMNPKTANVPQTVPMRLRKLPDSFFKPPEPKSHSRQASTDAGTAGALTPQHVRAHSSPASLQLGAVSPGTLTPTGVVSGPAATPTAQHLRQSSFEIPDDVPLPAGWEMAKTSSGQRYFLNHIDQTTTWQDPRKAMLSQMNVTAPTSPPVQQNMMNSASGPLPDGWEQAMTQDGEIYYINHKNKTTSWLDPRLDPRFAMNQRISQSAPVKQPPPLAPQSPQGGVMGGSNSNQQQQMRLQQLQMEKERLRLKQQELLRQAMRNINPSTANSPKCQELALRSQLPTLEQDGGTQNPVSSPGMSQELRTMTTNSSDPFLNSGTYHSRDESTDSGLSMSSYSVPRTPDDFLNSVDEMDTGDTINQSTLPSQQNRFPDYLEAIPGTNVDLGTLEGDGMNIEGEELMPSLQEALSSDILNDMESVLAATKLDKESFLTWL

- Kd: 7.9 µM
B1: recombinant TWF2, purified (BLI analyte) (natural protein)
chain: MAHQTGIHATEELKEFFAKARAGSVRLIKVVIEDEQLVLGASQEPVGRWDQDYDRAVLPLLDAQQPCYLLYRLDSQNAQGFEWLFLAWSPDNSPVRLKMLYAATRATVKKEFGGGHIKDELFGTVKDDLSFAGYQKHLSSCAAPAPLTSAERELQQIRINEVKTEISVESKHQTLQGLAFPLQPEAQRALQQLKQKMVNYIQMKLDLERETIELVHTEPTDVAQLPSRVPRDAARYHFFLYKHTHEGDPLESVVFIYSMPGYKCSIKERMLYSSCKSRLLDSVEQDFHLEIAKKIEIGDGAELTAEFLYDEVHPKQHAFKQAFAKPKGPGGKRGHKRLIRGPGENGDDS
